± gives the standard deviation of the averaged measurements.
Each sequence was assayed on ATP (assay: switch fluorescence ratio, 500 uM ATP over buffer (Cy3 cluster intensity, sum of 5 cycles each) (fold (ratio)); higher = stronger signal-on switching upon ATP binding; sequences stand for … in TCGTCGGCAGCGTCAGATGTGTATAAGAGACAGTTTTTTTTTTTTTTTTTTTTTTTTT…TC). Conditions: aptamer strand: ATP DNA aptamer (quencher-CACCTGGGGGAGTATTGCGGAGGAAGG + anchor), 100 nM annealed; ATP concentration: 500 uM.
Procedure, shortened: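 After annealing to 100 nM quencher-labelled ATP aptamer, Cy3-labelled switching-strand clusters on a modified Illumina MiSeq flow-cell were imaged in selection buffer. A second image followed after 15 min with 500 uM ATP at 22 °C, and five such buffer/ATP cycles were done, each separated by NaOH stripping and re-annealing. The fluorescence ratio, averaged per switch-domain sequence, is summed target-cycle over summed buffer-cycle Cy3 intensity per cluster, with clusters outside 100-1000 RFU excluded.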
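Further: ATP exposure 15 min at 22 °C before imaging.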

| Sequence | switch fluorescence ratio |
| --- | --- |
| TGCTATGGGT | 0.975 ± 0.023 |
| TGTTGTATAA | 1.2 ± 0.26 |
| CAGTGGGGCT | 1.016 ± 0.0057 |
| TCGGTTTTGT | 0.983 ± 0.026 |
| TCATGGGATG | 1.02 ± 0.018 |
| CGGGGGACGC | 0.993 ± 0.06 |
| AAGGTATGTC | 1.01 ± 0.063 |
| CCAAGCGCTG | 1.06 ± 0.03 |
| TTGATGTCCC | 1 ± 0.027 |
| AAAGTGTTGT | 0.979 ± 0.039 |
| CAAATTAGGC | 1.06 ± 0.1 |
| ACATTGAGGT | 1.01 ± 0.048 |
| GCCTATAGTC | 0.991 ± 0.03 |
| TGAGGTGTTG | 1.01 ± 0.063 |
| CCGATAGGCA | 1.124 ± 0.0038 |
| AATCATCCTC | 1.06 ± 0.043 |
| TCGGGGTGCA | 0.9732 ± 0.0086 |
| GTTAGAGGGC | 1 ± 0.011 |
| ATACTCCGGA | 1.16 ± 0.055 |
| GCGCATTTAG | 1.15 ± 0.066 |
| GGAGTATTAG | 0.999 ± 0.072 |
| CCGGTTGCTG | 1.12 ± 0.066 |
| GCTGTCGTTA | 1.015 ± 0.01 |

| Sequence | switch fluorescence ratio |
| --- | --- |
| TTGGTCTTGT | 1.001 ± 0.006 |
| TAATCTAATA | 0.987 ± 0.046 |
| GATTCGTGGC | 0.906 ± 0.14 |
| AGCTAGCCTT | 1.02 ± 0.028 |
| TTTTAGGTAT | 1.02 ± 0.038 |
| ATTTGGTTA | 0.993 ± 0.035 |
| ACGAACGGTA | 1.37 ± 0.032 |
| TGAGAGAGAA | 1.01 ± 0.019 |
| AAAACGATAT | 1.046 ± 0.0062 |
| GTAATTAAGG | 0.996 ± 0.029 |
| TAAGGGGGTC | 0.981 ± 0.012 |
| CGTATTCGCT | 0.993 ± 0.021 |
| AAGGGTTTAG | 1 ± 0.067 |
| AGGGGACGAT | 0.9887 ± 0.0056 |
| GCCCAATATC | 2.68 ± 0.053 |
| GGATATAAAT | 0.972 ± 0.0099 |
| GCCCGGGATT | 1 ± 0.012 |
| AAGGAAGTTT | 1.06 ± 0.18 |
| ACAAGTGGAC | 1.033 ± 0.0026 |
| TTTTTTGAGC | 0.996 ± 0.031 |
| TTTCATTAGT | 0.99 ± 0.045 |
| TCTTTACAAA | 1.03 ± 0.02 |
| CATCTCCGGT | 1.13 ± 0.0087 |

| Sequence | switch fluorescence ratio |
| --- | --- |
| GCCTTCCTTT | 2.15 ± 0.72 |
| CTGTAAGGAA | 0.989 ± 0.026 |
| AAGGTGGGTG | 0.999 ± 0.029 |
| AATGGGGGGG | 0.998 ± 0.034 |
| TGGATATGGG | 1.01 ± 0.028 |
| GACGGAAGCA | 1.38 ± 0.11 |
| TTGGGCCAGG | 1.14 ± 0.12 |
| TACGAGTTCT | 0.984 ± 0.013 |
| GCCATCGGGG | 1.03 ± 0.012 |
| TCAAGGTGTT | 1.15 ± 0.062 |
| AAAATATTTG | 0.964 ± 0.011 |
| AGTGGAAATT | 1.01 ± 0.049 |
| TGATTTTAGG | 0.9832 ± 0.0061 |
| TAAAGTAATT | 0.991 ± 0.039 |
| TTTTGTCGCA | 0.9913 ± 0.0075 |
| CCTGGATTAG | 1.05 ± 0.041 |
| TGGTTATCTT | 0.969 ± 0.011 |
| GAGGGATTGG | 1.05 ± 0.12 |
| CTTACAAGC | 1.04 ± 0.026 |
| ATAGTGTTGA | 1.03 ± 0.011 |
| TACTTAAAAC | 1.011 ± 0.0078 |
| GAAACGAAGG | 0.9704 ± 0.0028 |
| GACTACTGTA | 1.04 ± 0.051 |

| Sequence | switch fluorescence ratio |
| --- | --- |
| GATGATTATT | 0.9856 ± 0.0018 |
| TCAGGGGGTG | 1.05 ± 0.11 |
| ATGGGAACGG | 0.994 ± 0.017 |
| CGTTTTATCA | 0.9914 ± 0.0074 |
| GCAACAATGG | 1.08 ± 0.02 |
| ATATGGGTTC | 1 ± 0.026 |
| GAAGTGCTTT | 0.995 ± 0.041 |
| TAAGGGCGTT | 0.994 ± 0.022 |
| GGACAGGGGG | 0.9633 ± 0.0051 |
| GGGGGCTTAT | 1.01 ± 0.017 |
| AACGATCGCT | 1.04 ± 0.0082 |
| GAATGGCACG | 1.003 ± 0.008 |
| GACTTCGTGG | 1.01 ± 0.056 |
| TTTGATCTT | 0.974 ± 0.03 |
| TAAGGCCGGG | 0.9809 ± 0.0045 |
| TCAAGATAGG | 1.014 ± 0.0028 |
| GAGTGAGGGT | 0.987 ± 0.031 |
| TCGGGTGTGA | 1.029 ± 0.0015 |
| GAGGGCTTTT | 0.98 ± 0.017 |
| GAAAAAAGGC | 1.03 ± 0.032 |
| CGGACGGTTG | 1.01 ± 0.042 |
| TTAGAGGTTT | 0.971 ± 0.038 |
| GAGAGGGGAA | 1.01 ± 0.009 |

| Sequence | switch fluorescence ratio |
| --- | --- |
| CGGGCCCTGA | 0.977 ± 0.013 |
| ACAACCGGGG | 1.37 ± 0.029 |
| AGGGTCAGGT | 1 ± 0.013 |
| ATACCATGGT | 0.992 ± 0.053 |
| CCCATTTAGG | 1.04 ± 0.084 |
| GAGGGGCTGG | 0.984 ± 0.046 |
| GGTACGGGCC | 1.011 ± 0.01 |
| TTTCTCCCTT | 1.19 ± 0.13 |
| TCTTTGGGTT | 1.42 ± 0.92 |
| GGGGCTTGCA | 1.02 ± 0.019 |
| AGGCTTGCCA | 0.9991 ± 0.0016 |
| GGGTGAAAGC | 1 ± 0.017 |
| TTGGGTGCGG | 1 ± 0.066 |
| TGAGTACGTC | 1.06 ± 0.14 |
| CTGGTATGTG | 0.997 ± 0.029 |
| CTAACAATAA | 1.05 ± 0.081 |
| AATTCCCTTT | 0.9946 ± 0.0012 |
| GTGGGTATTT | 0.977 ± 0.023 |
| TGGGGACAGT | 1 ± 0.017 |
| CGGCGGCACG | 0.998 ± 0.086 |
| TATGGTGAGG | 0.976 ± 0.013 |
| TATATGGTGG | 1.02 ± 0.056 |
| GGGGTTAAGG | 0.978 ± 0.029 |

| Sequence | switch fluorescence ratio |
| --- | --- |
| CGGGCGCGTT | 0.984 ± 0.054 |
| TCCAGGGGGA | 1.1 ± 0.051 |
| CGATTAAATG | 0.993 ± 0.013 |
| ACGTAACATA | 1.22 ± 0.017 |
| GGGTGCCAGT | 0.963 ± 0.011 |
| TGATGGGGGA | 1.01 ± 0.03 |
| GTGATTGCTA | 0.9878 ± 0.0061 |
| TTGGTTGTAT | 1 ± 0.011 |
| AGTGAGCAGG | 1.11 ± 0.015 |
| GGGATTTATA | 0.995 ± 0.019 |
| AGAGAAGACC | 1 ± 0.028 |
| TTCGTTCTTT | 1.005 ± 0.0043 |
| TACTACACAC | 1.406 ± 0.013 |
| TCGGGGGTAA | 1.01 ± 0.033 |
| AAGAGATAGT | 1 ± 0.0076 |
| GGCTGGGAGG | 0.99 ± 0.014 |
| ATCCCCGACC | 1.25 ± 0.063 |
| CGGGATTGGG | 0.96 ± 0.061 |
| TACGGGAGCC | 1.01 ± 0.025 |
| TAATAGTTTG | 1.028 ± 0.0095 |
| TTGTTAAATG | 1.02 ± 0.056 |
| GGGTGTATGG | 0.981 ± 0.012 |
| CATCTTTGAA | 1.05 ± 0.017 |

| Sequence | switch fluorescence ratio |
| --- | --- |
| GAAGTGAGGG | 0.995 ± 0.017 |
| GGGGTAATGG | 0.993 ± 0.034 |
| GTAAAGCCTG | 0.968 ± 0.032 |
| TTAAAAGCGG | 1.03 ± 0.013 |
| AAAATCGACC | 1.08 ± 0.011 |
| AAGTTGGGTT | 0.9633 ± 0.0079 |
| GTTTGCAAGA | 1.01 ± 0.028 |
| AGTGGACTAG | 0.989 ± 0.026 |
| GGCATACGTT | 0.994 ± 0.026 |
| TCGTTGAACG | 0.973 ± 0.03 |
| CAAAAATTAT | 1.03 ± 0.044 |
| AAGAATATGC | 0.978 ± 0.027 |
| TTTTGTGGTA | 1.03 ± 0.013 |
| TTGCAGCTCA | 1.78 ± 1.1 |
| TTTTAAAATG | 1.01 ± 0.032 |
| TCAGGGCGCA | 1.03 ± 0.079 |
| GGGTTGCTTA | 0.99 ± 0.023 |
| TCTCACATCG | 1.01 ± 0.024 |
| GGGCCGTAGG | 0.99 ± 0.037 |
